# Experimental data: patent US20200157180A1 (JIANGSU HENGRUI MEDICINE, published 2020)
# B1: PD-L1 antibody (antibody, human IgG4 S228P, kappa, F234A L235A, V domains shown)
# VH: QVQLVQSGAEVKKPGASVKVSCKASGYTFTSYWMHWVRQAPGQGLEWMGRIGPNSGFTSYNEKFKNRVTMTRDTSTSTVYMELSSLRSEDTAVYYCARGGSSYDYFDYWGQGTTVTVSS
# VL: DIVLTQSPASLAVSPGQRATITCRASESVSIHGTHLMHWYQQKPGQPPKLLIYAASNLESGVPARFSGSGSGTDFTLTINPVEAEDTANYYCQQSFEDPLTFGQGTKLEIKR
# notes: Humanized IgG4 with S228P, F234A, L235A; last heavy chain residue K mutated to A; also called anti-PD-L1 antibody; PD-L1 antibody heavy chain: IgG4(AA)(S228P)
# Key:
# human TGF-β1 [1] = target: T1, human TGF-β1 (human, UniProt P01137 279-390); assay: cell-based or functional assay
# [2] = target: human PD-L1 on CHO/PD-L1 cells (human, UniProt Q9NZQ7 19-290); assay: cell-based or functional assay
# human TGF-β1 [3] = target: T1, human TGF-β1; assay: ELISA, coated human TGF-β1 1 µg/ml, anti-human Fc-HRP, OD450
# Description: a. 96-well plates were coated with 100 μl/well of human TGF-β1 (8915LC, CST) at a concentration of 1 μg/ml at 4° C. overnight.
# d. The wells were washed 3 times with 250 μl 1×PBST, e. 100 μl of Anti-human Fc antibody-HRP (1:4000) was added to each well and incubated for 40 minutes at 37° C.
# T1 sequence (P01137 279-390 limits assumed): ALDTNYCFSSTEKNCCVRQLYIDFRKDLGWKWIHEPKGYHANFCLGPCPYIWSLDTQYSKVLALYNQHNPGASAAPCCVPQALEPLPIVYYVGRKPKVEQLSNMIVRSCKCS
# Chain of human PD-L1 on CHO/PD-L1 cells (Q9NZQ7 19-290): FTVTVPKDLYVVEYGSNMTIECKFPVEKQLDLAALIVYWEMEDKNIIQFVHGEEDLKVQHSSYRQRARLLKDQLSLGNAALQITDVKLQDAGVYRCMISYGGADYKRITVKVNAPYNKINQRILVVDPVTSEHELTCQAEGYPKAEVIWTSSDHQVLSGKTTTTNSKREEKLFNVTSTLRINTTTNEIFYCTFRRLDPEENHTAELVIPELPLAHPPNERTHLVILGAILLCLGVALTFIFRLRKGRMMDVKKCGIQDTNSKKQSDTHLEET
binder,measurement,setting,value
B1,"IC50, TGFβ-induced pSMAD3 reporter (luciferase) activity in HepG2 cells",human TGF-β1 [1],> 500 nM
same,EC50 (read off the curve),[2],~0.3 nM
same,binding result,human TGF-β1 [3],no binding (tested: Log(pM) 6 (10^6 pM))
